Laboratory results: paper PMC10593751

Molecular target: human IgG1 (human)
Experiment: ELISA; immobilized human IgG (hIgG1 or hIgG2) used to pull down CD64; n = 3

| Substance | Kd [nM] |
| --- | --- |
| CD64 engineered at the N-terminus with the CKAAKNK (CK) tissue homing peptide (receptor) | 0.0536 |
| wild-type CD64 (Fc-gamma receptor 1) (from UniProt P12314 16-374) | 0.0589 |
